Results: patent US20160289698A1 (TRUSTEES OF DARTMOUTH COLLEGE, published 2016)

Key:
ARR12 (133-596) = target: T1, ARR12 (133-596) (Arabidopsis, UniProt P62598 133-596); experiment: BiFC with ARR fragments
T1 construct: range 133-596; Fused to a YFP fragment for BiFC; also called C-terminal domain of ARR12
T1 sequence (looked up): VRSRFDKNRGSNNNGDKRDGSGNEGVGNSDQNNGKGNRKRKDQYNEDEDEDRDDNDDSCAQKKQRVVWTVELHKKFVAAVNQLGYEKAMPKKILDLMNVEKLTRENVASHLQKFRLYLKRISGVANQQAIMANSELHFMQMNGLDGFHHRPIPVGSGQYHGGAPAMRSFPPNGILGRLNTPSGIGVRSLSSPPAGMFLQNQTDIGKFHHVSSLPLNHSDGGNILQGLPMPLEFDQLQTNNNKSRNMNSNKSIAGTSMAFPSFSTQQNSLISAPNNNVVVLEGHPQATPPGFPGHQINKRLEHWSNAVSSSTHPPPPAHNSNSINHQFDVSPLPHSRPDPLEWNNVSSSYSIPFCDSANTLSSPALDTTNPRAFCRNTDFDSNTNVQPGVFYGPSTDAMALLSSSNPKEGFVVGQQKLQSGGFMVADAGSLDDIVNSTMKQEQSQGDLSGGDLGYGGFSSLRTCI

ARR10 = target: T2, ARR10 (Arabidopsis, UniProt O49397 1-552, limits assumed); experiment: yeast two-hybrid (LexA-KMD bait, B42-ARR prey, X-gal)
T2 construct: also called type-B response regulator ARR10
T2 sequence (looked up): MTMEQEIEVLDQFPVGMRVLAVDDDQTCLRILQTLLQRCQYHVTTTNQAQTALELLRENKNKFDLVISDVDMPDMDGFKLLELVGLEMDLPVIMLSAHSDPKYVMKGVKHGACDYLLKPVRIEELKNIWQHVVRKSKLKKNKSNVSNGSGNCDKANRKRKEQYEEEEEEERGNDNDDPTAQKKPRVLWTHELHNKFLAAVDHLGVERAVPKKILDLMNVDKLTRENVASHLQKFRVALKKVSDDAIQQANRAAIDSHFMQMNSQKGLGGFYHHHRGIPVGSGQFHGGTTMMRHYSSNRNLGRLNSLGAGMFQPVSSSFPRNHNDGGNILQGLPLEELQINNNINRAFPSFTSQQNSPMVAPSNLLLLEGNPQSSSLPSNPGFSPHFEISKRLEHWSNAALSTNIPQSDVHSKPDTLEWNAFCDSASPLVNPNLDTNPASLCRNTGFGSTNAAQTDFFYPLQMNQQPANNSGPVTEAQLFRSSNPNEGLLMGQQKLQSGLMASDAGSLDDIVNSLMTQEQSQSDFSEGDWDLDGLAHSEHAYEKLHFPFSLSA
In short: (§1)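 LexA DNA-binding-domain KMD bait fusions (pGilda) and B42 activation-domain type-B ARR prey fusions (pJG4-5) were co-transformed into yeast EGY48 carrying the lacZ reporter plasmid pSH18-34. Interaction was scored by colour on X-gal medium.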

ARR19 (subfamily-2) = target: T3, ARR19 (subfamily-2) (Arabidopsis, UniProt Q9M9B9 1-407, limits assumed); experiment: as above
T3 sequence (looked up): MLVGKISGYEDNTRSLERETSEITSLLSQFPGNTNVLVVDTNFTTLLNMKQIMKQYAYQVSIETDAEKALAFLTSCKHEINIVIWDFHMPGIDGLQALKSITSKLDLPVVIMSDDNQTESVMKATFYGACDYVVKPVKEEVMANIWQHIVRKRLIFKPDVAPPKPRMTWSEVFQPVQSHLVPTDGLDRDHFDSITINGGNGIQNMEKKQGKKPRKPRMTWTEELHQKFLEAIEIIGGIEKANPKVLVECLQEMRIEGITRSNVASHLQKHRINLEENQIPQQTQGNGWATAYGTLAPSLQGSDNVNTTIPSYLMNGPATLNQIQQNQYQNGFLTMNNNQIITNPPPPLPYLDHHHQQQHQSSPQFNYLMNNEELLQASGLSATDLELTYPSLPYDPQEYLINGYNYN
In short: as §1

B1: KISS ME DEADLY 1 (KMD1) (other, Arabidopsis, UniProt Q9M8L2 1-354, looked up)
chain: MELIPNLPDDVARECLLRSSYQQFPVIASVCRAWNREVSLSQFLHQRKASRHSQELLILSQARVDPAGSGKIIATPEYRISVLESGSGLWTELPPIPGQTKGLPLFCRLVSVGSDLIVLGGLDPITWQAHDSVFVFSFLTSKWRVGATMPGVRRSFFGCASDSDRTVLVAGGHNEEKCALTSAMVYDVSEDKWTFLPDMARERDECKAVFHAGRFHVIGGYATEEQGQFSKTAESFDVSTWEWGPLTEDFLDDTGDTVSPPTCVAGGDLYACWGGDVMMFLNDKWQKVGQIPADVYNVTYVAVRPGMLIVIGNGKALAGYGEATVGYICDLSSSRWVKLETHGGHVQAGCFLEV
notes: Full-length protein; also called At1g80440
B1: binds (ARR12 (133-596)); binds (ARR10); no binding (ARR19 (subfamily-2)).

B2: KISS ME DEADLY 2 (KMD2) (other, Arabidopsis, UniProt Q9LMR5 1-359, looked up)
chain: MELIPDLPETVAYECLLRSSYKQFPLMASVCKLWQREISLSDFFRHRKASGHSQELVVLSQARVDPVKELVSGNKTIPTPVYRISVLELGTGLRSELPPVPGHSNGLPLFCRLVSVGSDLVVLCGLDPVTWRTSDSVFVFSFLTSTWRVGKSMPGGPRSFFACASDSQRNVFVAGGHDEDKNAMMSALVYDVAEDRWAFLPDMGRERDECTAIFHAGKFHVIGGYSTEEQGQFSKTAESFDVTTWRWSPQGEEFLSSEMTMWPPICAAGENGDLYACCRRDLMMMKDDTWYKVGNLPADVCNVSYVAIRRSGNLVVIGSARYGEPSVGYNWDMSNSRWLKLETHDKYEGHVQAGCFLEI
notes: Full-length protein; LexA fusion in yeast two-hybrid, YFP^N or YFP^C fusion in BiFC; also called At1g15670
B2: binds (ARR10); no binding (ARR19 (subfamily-2)).
